In article PMC3335792:

Molecular target: E. coli β-clamp labeled with OregonGreen488 (E. coli β-clamp^OG) (E. coli), P0A988
Assay: other fluorescence titration; OregonGreen488-labeled β-clamp (50 or 100 nM in the methods, 90 nM in the legend) titrated with the partner protein; 20 mM Tris-Cl pH 7.5, 8 mM MgCl2, 1 mM DTT, 0.2 mM EDTA, 50 mM NaCl, 0.5 mM ATP, 22°C; emission at 510 nm; apparent Kd
Conditions: remark: other sources report otherwise

Chain of E. coli β-clamp labeled with OregonGreen488 (E. coli β-clamp^OG) (E. coli), P0A988 (P0A988 whole entry): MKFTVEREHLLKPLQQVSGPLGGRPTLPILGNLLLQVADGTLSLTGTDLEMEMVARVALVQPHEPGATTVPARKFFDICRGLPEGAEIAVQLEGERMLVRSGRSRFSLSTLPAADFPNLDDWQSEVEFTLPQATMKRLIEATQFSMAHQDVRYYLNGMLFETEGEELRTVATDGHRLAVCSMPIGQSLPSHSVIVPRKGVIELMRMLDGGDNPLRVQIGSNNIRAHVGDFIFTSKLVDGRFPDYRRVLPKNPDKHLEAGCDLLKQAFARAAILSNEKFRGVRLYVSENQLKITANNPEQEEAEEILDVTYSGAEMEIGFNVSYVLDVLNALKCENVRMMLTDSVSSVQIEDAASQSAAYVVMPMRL

Kd: 42.5 nM
B1: E. coli NAD+-dependent DNA ligase (E. coli LigA), P15042 1-671 (enzyme)
chain: MESIEQQLTELRTTLRHHEYLYHVMDAPEIPDAEYDRLMRELRELETKHPELITPDSPTQRVGAAPLAAFSQIRHEVPMLSLDNVFDEESFLAFNKRVQDRLKNNEKVTWCCELKLDGLAVSILYENGVLVSAATRGDGTTGEDITSNVRTIRAIPLKLHGENIPARLEVRGEVFLPQAGFEKINEDARRTGGKVFANPRNAAAGSLRQLDPRITAKRPLTFFCYGVGVLEGGELPDTHLGRLLQFKKWGLPVSDRVTLCESAEEVLAFYHKVEEDRPTLGFDIDGVVIKVNSLAQQEQLGFVARAPRWAVAFKFPAQEQMTFVRDVEFQVGRTGAITPVARLEPVHVAGVLVSNATLHNADEIERLGLRIGDKVVIRRAGDVIPQVVNVVLSERPEDTREVVFPTHCPVCGSDVERVEGEAVARCTGGLICGAQRKESLKHFVSRRAMDVDGMGDKIIDQLVEKEYVHTPADLFKLTAGKLTGLERMGPKSAQNVVNALEKAKETTFARFLYALGIREVGEATAAGLAAYFGTLEALEAASIEELQKVPDVGIVVASHVHNFFAEESNRNVISELLAEGVHWPAPIVINAEEIDSPFAGKTVVLTGSLSQMSRDDAKARLVELGAKVAGSVSKKTDLVIAGEAAGSKLAKAQELGIEVIDEAEMLRLLGS
modifications: here or on the partner: OregonGreen488 label (residue not stated)
